Target: His(6)-p300 (UniProt Q09472 1-2414)
Assay: pull-down

His(6)-p300, sequence (Q09472 whole entry): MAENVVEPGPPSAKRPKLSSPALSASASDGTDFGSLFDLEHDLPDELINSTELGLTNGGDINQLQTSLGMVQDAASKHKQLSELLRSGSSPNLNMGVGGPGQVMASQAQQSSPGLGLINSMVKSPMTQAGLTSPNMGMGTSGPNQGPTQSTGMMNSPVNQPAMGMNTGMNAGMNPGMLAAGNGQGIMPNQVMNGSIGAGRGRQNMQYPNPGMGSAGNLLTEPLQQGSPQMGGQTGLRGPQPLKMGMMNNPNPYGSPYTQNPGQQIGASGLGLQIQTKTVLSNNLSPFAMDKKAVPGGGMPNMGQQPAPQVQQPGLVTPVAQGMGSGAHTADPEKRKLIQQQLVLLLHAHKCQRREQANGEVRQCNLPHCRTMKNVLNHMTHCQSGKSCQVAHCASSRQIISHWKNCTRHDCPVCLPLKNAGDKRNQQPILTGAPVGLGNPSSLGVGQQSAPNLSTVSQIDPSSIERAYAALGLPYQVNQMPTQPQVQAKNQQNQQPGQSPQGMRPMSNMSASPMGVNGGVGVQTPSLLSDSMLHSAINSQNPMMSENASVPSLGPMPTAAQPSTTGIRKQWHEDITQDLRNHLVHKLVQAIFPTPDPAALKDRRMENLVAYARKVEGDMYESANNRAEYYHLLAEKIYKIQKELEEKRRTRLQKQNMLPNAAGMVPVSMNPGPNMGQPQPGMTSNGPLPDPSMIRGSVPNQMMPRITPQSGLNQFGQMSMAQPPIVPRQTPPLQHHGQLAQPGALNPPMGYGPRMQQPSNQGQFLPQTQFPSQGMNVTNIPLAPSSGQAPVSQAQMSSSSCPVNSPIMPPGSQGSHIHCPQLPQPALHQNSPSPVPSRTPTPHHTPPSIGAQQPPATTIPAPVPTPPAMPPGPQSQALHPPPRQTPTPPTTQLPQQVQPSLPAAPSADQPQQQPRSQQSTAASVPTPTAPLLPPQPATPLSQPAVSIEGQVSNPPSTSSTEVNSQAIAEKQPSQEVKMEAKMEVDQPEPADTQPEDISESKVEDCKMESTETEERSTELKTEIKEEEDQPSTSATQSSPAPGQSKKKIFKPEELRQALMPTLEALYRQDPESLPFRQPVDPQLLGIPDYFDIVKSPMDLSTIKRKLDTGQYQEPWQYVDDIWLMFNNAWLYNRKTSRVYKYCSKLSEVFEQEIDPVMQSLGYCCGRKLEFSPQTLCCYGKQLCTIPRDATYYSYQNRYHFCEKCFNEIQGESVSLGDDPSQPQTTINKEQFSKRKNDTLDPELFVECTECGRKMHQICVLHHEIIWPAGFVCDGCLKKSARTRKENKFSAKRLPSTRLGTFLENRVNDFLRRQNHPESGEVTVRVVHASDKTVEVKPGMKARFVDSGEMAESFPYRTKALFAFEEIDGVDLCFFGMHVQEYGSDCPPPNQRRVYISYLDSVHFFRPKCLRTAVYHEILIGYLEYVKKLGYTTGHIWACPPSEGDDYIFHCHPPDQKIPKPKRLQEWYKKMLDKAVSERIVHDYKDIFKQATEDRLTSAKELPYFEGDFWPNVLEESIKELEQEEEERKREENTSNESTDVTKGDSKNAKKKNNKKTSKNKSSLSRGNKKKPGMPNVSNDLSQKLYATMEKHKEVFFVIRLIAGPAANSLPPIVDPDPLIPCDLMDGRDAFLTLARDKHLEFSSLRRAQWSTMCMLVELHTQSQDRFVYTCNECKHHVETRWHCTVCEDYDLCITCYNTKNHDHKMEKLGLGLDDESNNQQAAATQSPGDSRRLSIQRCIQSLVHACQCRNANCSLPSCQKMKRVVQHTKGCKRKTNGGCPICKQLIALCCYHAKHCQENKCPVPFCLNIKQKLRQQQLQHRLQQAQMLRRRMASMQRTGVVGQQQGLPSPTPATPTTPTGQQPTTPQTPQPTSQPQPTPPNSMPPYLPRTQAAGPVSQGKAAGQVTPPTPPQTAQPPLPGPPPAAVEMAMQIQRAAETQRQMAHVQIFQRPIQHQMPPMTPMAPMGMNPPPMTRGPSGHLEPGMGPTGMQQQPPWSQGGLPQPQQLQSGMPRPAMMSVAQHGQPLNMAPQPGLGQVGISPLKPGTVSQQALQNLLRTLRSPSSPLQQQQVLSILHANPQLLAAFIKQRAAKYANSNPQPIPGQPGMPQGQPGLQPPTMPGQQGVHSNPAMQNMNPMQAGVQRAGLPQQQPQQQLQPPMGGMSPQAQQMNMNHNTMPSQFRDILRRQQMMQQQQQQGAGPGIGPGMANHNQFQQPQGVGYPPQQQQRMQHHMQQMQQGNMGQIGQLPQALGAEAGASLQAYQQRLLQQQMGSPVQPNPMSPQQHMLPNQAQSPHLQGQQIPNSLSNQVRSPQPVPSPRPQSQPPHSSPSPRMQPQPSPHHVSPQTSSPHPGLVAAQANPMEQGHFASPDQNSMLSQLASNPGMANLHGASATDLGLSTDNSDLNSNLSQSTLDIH

B1: GST-fused BRMS1 WT (natural protein, UniProt Q9HCU9 1-246, looked up)
chain: MPVQPPSKDTEEMEAEGDSAAEMNGEEEESEEERSGSQTESEEESSEMDDEDYERRRSECVSEMLDLEKQFSELKEKLFRERLSQLRLRLEEVGAERAPEYTEPLGGLQRSLKIRIQVAGIYKGFCLDVIRNKYECELQGAKQHLESEKLLLYDTLQGELQERIQRLEEDRQSLDLSSEWWDDKLHARGSSRSWDSLPPSKRKKAPLVSGPYIVYMLQEIDILEDWTAIKKARAAVSPQKRKSDGP
binding result: binds
